From the domain aggregation screens of Martell et al. (2025)

assay: soluble fraction after stress (log2 fold change); higher = more stays soluble; pooled small domains, quantitative proteomics; settings: stress: 75 degC
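Also: 20 min heating vs room temperature control held 20 min.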

First: HMTTVRLNATVPPELALQRLDRVARELFPEYSRNRLQQWIRSGELLVNGSPSGVRDKVPLGAELAVAANLE
Second: HMTTVSINTTGIITASTIRASSALYPPLYTTVQRDAGTFSAGAIIFNSTTSKLEFYDGTTWQSLPG
The “soluble fraction (log2)” value of the first is lower: -0.657 for the first, -0.339 for the second.

First: HMTTVTVGSKVRVKAGATFSDGAKPFAEVYNTVYDVQLLSHNGKEARIGIGDQWTGWIYISDLYLANQPAP
Second: HMTVEMYIGKTANVLETVTENNGRIAIFGEEWQAKSLNGETIEKGAQAKIVKNDSIIMYVVPI
The “soluble fraction (log2)” value of the first is lower: -1.84 for the first, -0.443 for the second.

Compared with “HMTVGENTYELIKKDIIFGVLPPLKKLKLQELKKIYNASVSTLREILSRLTGDGFVFSEEQKGFYVSPV”, “HMTVKEVGYDTFLTMLDKKEIKQVQVEDNQIIFSDNADPVNYYKTGVFNDPDLVNRLQDAGVEFG” is higher in “soluble fraction (log2)” value: 0.0263 for the first, 1.01 for the second.

Going from “HMTVKEYNRAVDEYSDAVWRFIRGNLRDEDRANDIVQDSFEKLWMHVTEIDYSVAKSWLFSTAYNNMIDI” to “HMTVKKLTINEDNSGRRIDNYLLSIFNSLPRSKIYNIIRKGEVRVNSSRIKPNYRLEQGDLVRIPPNLEFT”, the “soluble fraction (log2)” value rises from -0.707 to 0.154.

Going from “HMTVKRNLVQEILRLKFRHPENFMPNRAFYQEVGINQMRWWDIFYGRKNINQEEYIALSKYF” to “HMTVLPTEQDAKALVGLGEEEAAKIVEGNGWTYRIGSRDGEQFMLTEDFVTSRLTLGIEKAIVMTATI”, the “soluble fraction (log2)” value falls from -0.353 to -0.906.

First: HMTVLSKEEFVAIEQRLLQLLGTAPVDNKILLQQLSGIKKEKAWKVLSFLQAENKIGMDATGRVYL
Second: HMTVPDVKGMGARDAVFLLETLGFKVRINGIGQVYEQSIDPGKSYSKGEFISLRL
The “soluble fraction (log2)” value of the first is lower: -0.974 for the first, -0.699 for the second.

Going from “HMTVPNVVGQRILAAQDILKNLGLKVLVDTNLPNSQWGLRNVKSTNPGAGAVVRVGDTVTLIAR” to “HMTVPTEVALELMHATALEDNEQRILYIASFKEKHREHLHATIEVDGQEVTLARYADLVATGAYL”, the “soluble fraction (log2)” value falls from -0.441 to -2.56.

“HMTVSADIIQKIIKTSTTDENIITIDSISNSISKLALSKITAEDIIEILEASSLVLRNSNGSWTVL” and “HMTVSKLKVINYTIRNGDSLWTISRKFNVTVDKVKEWNGLSDRTLLQPGQKLTLYVDPTIQISH” are within 0.2 log units of each other in “soluble fraction (log2)” value: -1.7 for the first, -1.82 for the second.

First: HMTVSLLQTRQRLQALADLGHYKGDLGAAWGPDAIEALKKAQATLGVTVDGKWGPQTEDAIQVALKVQ
Second: HMTVTISPGYEGRLLRSYLKNTLSLSTSALARLKTREDGITVNGVRVTVRYVLHAGDLLQLAVD
The “soluble fraction (log2)” value of the first is higher: -0.237 for the first, -0.579 for the second.

Going from “HMTVVHRQVHLQPDQGAFRAALYSHKAVLSEQTDDQGAINLEIRLPESDFLRLLNSSGLKLQDLVP” to “HMTVVSVDDQASASSEAIRTKVAGDSAARMSVDAGGKITWGAGSASGDVTLYRSAANTLKTDDTLVAT”, the “soluble fraction (log2)” value rises from -0.427 to 0.16.

Going from “HMTYADTRDLLIRRGMELLTEQGIAATSIERVLQSTGIPKGSFYHYFATKHDFTLAVMDAYHHY” to “HMTYAQQIGARIAFLRRLKGLTLAELAERVNKHKSTISKYESGQIIIDIESLKEVADALGVDVAQIVE”, the “soluble fraction (log2)” value falls from -0.157 to -1.26.

First: HMTYFDIAPELLTVYKEINDIPRDINQIVRKTGLSINEVSYKTMILQLEDKIVELPGQRFIRNS
Second: HMTYKHLTIDEMKRFLSTREDSQSALVQFARVENVVGNRKGKYAVIKKWFLKNYKEEYNAFLS
The “soluble fraction (log2)” value of the first is lower: -2.46 for the first, 0.0231 for the second.

First: HMTYPGSIALVNPKHEAFVQHYVATSGSRGQAAKLAGVTTTTARNLLQDVEATARIRYLNAQQFQ
Second: HMTYTGTVTGVDEGGLRVRSSTSTENTSNVITKVYTGDTFDVLDTVYNGSAKWYKIGFTYNGTYTYGYVSA
The “soluble fraction (log2)” value of the first is higher: -0.12 for the first, -1.51 for the second.

“HMTYVSVSNYIGTNVDKAKGELESQGLVVLLEEQKTEDKSQDGMVLKQTIEGGTKVSSGSRITLIYGRYT” and “HMVADEGELLAIAREVVAANPKVFEDWKAGKQSAAQWFVGQIMKRTRGRANPQLALKLVTQALEEHAR” are within 0.2 log units of each other in “soluble fraction (log2)” value: -0.0441 for the first, 0.0384 for the second.

Compared with “HMVAEKSKIEMAIDSINKLAKELADSGVAKKTISDIIKSVSGSANYNKITDFEVATDVYKELVALKNKEDT”, “HMVAESGLPPAFRSTWRHIMQTRGAQLDVLAMRTGTDAASLQKQLHAMELGGWVRRMPGGWYVPLK” is lower in “soluble fraction (log2)” value: 0.223 for the first, -1.78 for the second.

First: HMVAFYATPKERGIYDDAETYREGDIVSIADGSRWIYVNPTATAGNDPADGSVYWERMSGAATGP
Second: HMVAGHLQEKKGYFYMVLTYRDHEGKRKSKWLPTGLTIKGNKKRAQDLLQDARKNFVPDIPT
The “soluble fraction (log2)” value of the first is higher: 0.116 for the first, -2.37 for the second.

Going from “HMVAGHLQEKNGYFYIVLNYTNHEGKRKSKWITTGLTVKGNKKRAQDLLQEARKTFVPDIPT” to “HMVAPKDIVMPSFVGKKYTDVVNTPNSSYTFEFKKDEKNSSDYAVGFIMDQKPKAGETVKSNATVTLIVSK”, the “soluble fraction (log2)” value rises from -2.88 to 0.0603.

Compared with “HMVAPNSEATTKLIIEKTKYANESPAILMGFKATATMLMAKHVVLPTSKYAYFNEGRALLEKAIK”, “HMVAREAYTTQNLTDVFSISRQAVEKRAKREGWQSVPRKGRGGGKLWVVSSMPAETRDLLASLLLRK” is lower in “soluble fraction (log2)” value: 0.154 for the first, -0.608 for the second.

“HMVDALYGQGARVMRDFSEGSGIVKLDNGETWTGRLSPAASGASLYVGDRVIVTRIDGAIAEVTPP” and “HMVDDNFGLGEVTDQNYLTVLGRALDLIGWTDEQADSYSLKTFGVPHWDELGRSQAEKLVAHLIGLLKEQM” are within 0.2 log units of each other in “soluble fraction (log2)” value: 0.00352 for the first, 0.0834 for the second.

Going from “HMVDIEQAEFLSRQFDLLLARLDDPTIEWQDIADIRSEYTGENEHRDTIRKGSKLFYEYLQAGWIKN” to “HMVDISLSDRELEVLRLLAMGLSNADISRRLYLSEGTIRNYMSGIFSKLNVSDRTQAVVIALREGLVNL”, the “soluble fraction (log2)” value falls from -0.678 to -1.56.

First: HMVDPAEASKRAREYLDALPADDLKDVIRQFSATLAEGSVVLGYFQRSGLKSKVVKTALEQFVASTILSK
Second: HMVDPAFLAWQQKPENTWFGTDRRKTALAIAIAEEIRNDPANSNLVGAAFYARVAEETEETLN
The “soluble fraction (log2)” value of the first is lower: -1.16 for the first, -0.546 for the second.

Going from “HMVDPWLEQVHRASAAYATAHGSARIPTTHPDLGWKVVRVRQRHRKGLLSDEWVAKFEALPGWTWEPK” to “HMVDQAFQTQLKNIQARTGKNLDELYAFIRASGLVKHGEIRDLAKRELSLGHGDANTLAKFYLESLAAAA”, the “soluble fraction (log2)” value rises from -1.52 to 0.0377.

First: HMVDQKLIQASAEHSGIRIDRFLSEQLPEHSRSYIQKLIKDGQVSIGGKAVKSNYKIAGTEEISLLIPDQ
Second: HMVDTSDLPAIVEKVFADNPEQVNDILNGKDRVKGFLVGQIMKATRGQAPPDEVNKLIDATLEKMKAA
The “soluble fraction (log2)” value of the first is lower: -0.0516 for the first, 0.239 for the second.

Going from “HMVDYIGRRGVMLSTVSEEKMGNAEVVIDGNSYNIYVKSLDGSTIAYHQEILIINKSKDNNYFLVQIY” to “HMVEAIDQALIEKQIQAVLQENSAAVKKYQAGKTEVLAFLIGQSMRKIAKKVDANLVKNILLEQLKNK”, the “soluble fraction (log2)” value rises from -2.81 to 0.228.

Going from “HMVEDFSEVLLQYIREQGGAIALNDKTDAGVIYDTFGVSKKTFKKAVGDLYKKRLIVLGDEGIRLA” to “HMVEIGENIKKLRKAKRMTQKEVANQLNVTPQTISKWERNISYPDLDMLVKLSQLFHISTDALL”, the “soluble fraction (log2)” value rises from -0.757 to -0.553.

First: HMVELNDNEKIVYDILKETEKIHIDELTAKVQLTQSILSGALVQMEMKGMIVSLPGKMYKLL
Second: HMVELRDGSLPLARGSVGDLVAEVQRKLGVAADGIFGPQTERAVRAFQARAGLASDGIVGPLTWSALFGA
The “soluble fraction (log2)” value of the first is lower: -1.65 for the first, -0.516 for the second.

First: HMVELVKVPALQGETVDEAIADIKDAGLEPGQVRYVESDLPKDTVTYQSVDAGEQVKAGTVINLQASKGP
Second: HMVEMSNMELVREQYFQNLIYNVGDWVKDSKTEITGEVVKRGTNYLTIVQEDFTLHKVWLEDAESME
The “soluble fraction (log2)” value of the first is higher: 0.765 for the first, -0.511 for the second.

“HMVEPDELTEREREVLQFVARGLSNKEIGAALALSPHTIKAHLRSILDKLHLRSRAEAAAWAVRSGLS” and “HMVEPLIVRNFSINYADIDKLETKIKDYISNSDKSGVNRGRVTSDTRTNMLIVTETASKLAQVEQLLKALD” are within 0.2 log units of each other in “soluble fraction (log2)” value: -0.344 for the first, -0.279 for the second.

Compared with “HMVEPTDFTYLKAEVETAKALKQADYTVATWKSFAGELAEAEEVIAKTDASQAEVNEALSHLQAAEKELV”, “HMVETDQESSLIQAIYKYFEITGDNTFFDEKVGEKTVADRMEWAMDYLIQNRFSEEYGLIWGA” is lower in “soluble fraction (log2)” value: 0.23 for the first, -0.285 for the second.

Compared with “HMVFADRLRALRKKSGLTQDEFSKQTGIGRSAVGMYESGKREPNYTTLSKVARFYHVSTDYLLGRTDTP”, “HMVFQTAAEKAYEIISKKIMKGEYEPGMRLVRRQLAQELGVSPIPILEAMKRLEQDGLIEYKAHWGSIVTI” is lower in “soluble fraction (log2)” value: -1.52 for the first, -2.29 for the second.

Going from “HMVFRFELQPSSATPLYRQIVEQVTRAVAAGVLRDGEELPSVRAVAQEYVINPMTVSKAYSLLEAQSI” to “HMVFSNLGSRGEEVRQIQTKLKELGYLQGNVDGIYGNQTKQAVTAFQRDHGLSADGIAGEKTLAALGIG”, the “soluble fraction (log2)” value rises from -0.366 to 0.636.

“HMVGAEDISKPMNLGALMRTAHAFGASFFFTINAHPKVRHAYNSDTSRSFDHMPYYPWDTMEE” and “HMVGDLPPQELRVFELIGDGLSNREIADEMILAEKTIKNYVTSLLQKLGMQRRTEAAAFAARLDER” are within 0.2 log units of each other in “soluble fraction (log2)” value: 0.151 for the first, -0.0289 for the second.

First: HMVGDMLTQKDSEGLTAYLYQQGIISQREMLLLNGILKDRVLTGMEKGQRDSVRASMVQHLLAMLNMM
Second: HMVGEQISYIPLKFATASEVVKSLTSMFQQQKGIAPIRIVAEERTNAILLLASEADTARVKNLIAMMDKGV
The “soluble fraction (log2)” value of the first is higher: -1.94 for the first, -2.15 for the second.

First: HMVGGIAIGQFNVPRGSVKVTAGGRLLQEGLDYTVNYQAGRVQILDESLKNSNVPIEISTESNS
Second: HMVGMDRYFKIKNIKDSSAAFERDYILHFLKENDWMVSKTAQMIGLERTTLYKKIKQLGLASMLEN
The “soluble fraction (log2)” value of the first is higher: 0.106 for the first, -3.24 for the second.

Going from “HMVGQIISNARKQEKMTQSELAEKVGTNKTYISRIEKGVIEPGVGLFFRIIDALGLKIEIVKP” to “HMVHSEDLQDHKYVSQLGEVFLKENPNYENIKKSWGDHMVVIKKFGRYPHRNKILNRKSTPEELEFLKG”, the “soluble fraction (log2)” value rises from -2.07 to -0.0435.

First: HMVILPGEKMVVKIVQPGKEKGQGVGYLADGTMIVVDSGDKMIGQDVPTEITRVFQTVAGKMLFAVPVD
Second: HMVIMDLIVNGEPKYVVGEQLHLILDELGYSGKHFVVELNGEILSKEAYTTTKLTAADRLEIVSFVGG
The “soluble fraction (log2)” value of the first is higher: -0.73 for the first, -3.23 for the second.

Going from “HMVITATYTDFMDALEADEVKQVQFSSTEINYTIEKGGHVQYFKTGVVDNPQLPQILREKGVTYAAEIP” to “HMVITDPFFLEPENLVKDAVALMEKYRISGVPITKKGKLVGILTNRDLRFESNYEQPIANVMS”, the “soluble fraction (log2)” value rises from -0.512 to 0.137.

Going from “HMVITISEADVSGTYTKSITQGDWKYIRTWTPFEDERLYDLAKDPMELRDLAPAAPSKLAELRELLSALVS” to “HMVIVMRKDADAASIEKVVSEVKSRGFMPHVSEGESRTLIGAIGPAPTEELREHFAGLAGVETVVRITK”, the “soluble fraction (log2)” value rises from -1.4 to -0.533.

In the case of “HMVKDIEFSLPLEQDYYKVLISVKDSQGKRQVYEELHRAGDTVYAAVRYYGSGELEIHLNGKFYKTIK”, the “soluble fraction (log2)” value is reported as -0.868.
